# Test results: patent publication US20200207835A1, “SRCP1-BASED THERAPY FOR DISEASES ASSOCIATED WITH PROTEIN AGGREGATION” (THE MEDICAL COLLEGE OF WISCONSIN, INC., priority 2017, published 2020)
# B1: SRCP1: Dictyostelium discoideum serine-rich chaperone protein 1 (SEQ ID NO:2), expressed in cells as RFP-tagged construct (protein)
# chain: MTILSTFTSFSNPPKLNKSSFSSSTGSSLSMGSNSFAWGGGWGGFGGPKGGSFNVDIAGNLIWGVYGFIRGGVGLVKWRGLQKGCKQP
# modifications: RFP tag; Dictyostelium discoideum AX4
# Assays:
# [1] = system: HD iPSC-derived neurons; assay: Neurite length in HD iPSC-derived neurons; type: cell-based, human; settings: HD iPSC-derived neurons with 60 or 180 glutamines, overexpression of SRCP1
# Method: iPSC transfections were performed with mixed cultures of astrocytes and neurons adhered to matrigel-coated coverslips, seeded at 2.6×10^4 cells/cm^2. iPSC transfections were performed using Lipofectamine 2000 according to the manufacturer's instructions and recommended DNA concentrations for a 24-well transfection.
# Plated iPSC derived cultures of astrocytes and neurons were fixed with 4% paraformaldehyde in PBS for 20 minutes at room temperature, 3-5 days after transfection. Cells were permeabilized and blocked prior to antibody labeling. Nuclei were labeled with Hoechst nuclear dye. Primary antibodies used were rabbit anti-Tuj1 (Covance MRB-435P), chicken anti-Tuj1(Gene Tex, GTX85469) and mouse anti-GFAP (Cell Signaling, 3670). Images were taken using an upright Nikon fluorescent microscope with a 40× objective. The number of neural cells with GFP positive puncta was quantified using NIS Elements object quantification tool (Nikon) and neurite length was measured using NIS Elements length measurement tool (Nikon).
# For control iPSCs, four biological replicates from two independent differentiations were analyzed and for HD iPSCs, four biological replicates were analyzed from four separate differentiations using two independent HD lines.
# [2] = system: ^GFPHtt^ex1Q74; assay: GFPHttex1Q74 aggregation in transfected HEK293 cells (fluorescent/confocal microscopy, western blot, filter trap assay); type: cell-based, human
# Sequence of ^GFPHtt^ex1Q74 (P42858 with tags, fused parts or gaps limits assumed): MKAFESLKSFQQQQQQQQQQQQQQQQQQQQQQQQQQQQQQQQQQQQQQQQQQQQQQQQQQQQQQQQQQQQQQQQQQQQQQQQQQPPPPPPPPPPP
# Method: Transfections were performed with Lipofectamine 2000 (Invitrogen by ThermoFisher Scientific) and adapted from the manufacturer's instructions. Briefly, cells were plated on either 12-well or 6-well plates and transfected at 50-70% confluency. For 12-well transfections, 0.833 μg of DNA per well was mixed with 50 μl of OptiMEM (Gibco by Life Technologies) media and incubated for 5 minutes at room temperature. Lipofectamine 2000 in a 2:1, μl of lipofectamine: μg DNA ratio was mixed with 50 μl of OptiMEM media and incubated for 5 minutes at room temperature. DNA and Lipofectamine were mixed and incubated for 15 minutes at room temperature. Fresh media was added to cells prior to the addition of DNA and lipofectamine. For 6-well transfections, the same protocol is followed except that 1.25 μg of DNA per well and 100 μl of OptiMEM for dilution was used. Media was changed 24 hours post-transfection and cells were harvested 48 hours post-transfection. Prior to harvesting, HEK293 cells were washed three times with ice-cold 1×PBS. Samples were then lysed with either 150 μl of ice-cold NETN (with protease inhibitor) or 1× Laemmli Buffer and sonicated twice for 5-8 seconds.
# (§1) For proteasome inhibition, 30 hours post-transfection cells would be replenished with DMEM containing either DMSO or 10 μM MG132 (Sigma-Aldrich) for 18 hours. Prior to harvesting, HEK293 cells were washed three times with ice-cold 1×PBS and imaged by fluorescent microscopy with a 20× objective using the Evos FL Auto Imaging System. Cells were then lysed with either 150 μl of ice-cold NETN (with protease inhibitor) or 1× Laemmli Buffer and sonicated twice for 5-8 seconds.
# as §1, with “autophagy” for “proteasome”, “24” for “30”, “and treated with” for “containing”, “5 mM 3-Methyladenine” for “10 μM MG132”, “an additional 24” for “18”
# For HEK293s′, slides were prepared by placing coverslips in 6-well plates and incubating with poly-L-lysine hydrobromide (Sigma-Aldrich) for an hour at room temperature. Coverslips were rinsed with 1×PBS three times prior to plating HEK293 cells. HEK293 cells were then transfected and fixed by incubation in 4% paraformaldehyde for 20 minutes at room temperature. Coverslips were mounted with ProLong Gold Antifade reagent and imaged with a 20× objective using the Evos FL Auto Imaging System or with a 40× objective using the Leica TCS SP5 Confocal Microscope System. For confocal, Z-stack images were obtained at […] intervals at 1024×1024 pixel resolution and merged using Fiji.
# Following sonication, lysates were subjected to BCA protein assay (ThermoFisher Scientific) and prepared for loading by the addition of 4× laemmli buffer and boiling for four minutes. Samples then loaded on SDS-polyacrylamide gels, ran at 175 V, and transferred onto an Immuno-blot PVDF membrane (Biorad) overnight at 30 V. Membranes were blocked in 5% milk in TBS with 0.1% Tween (TBST) and incubated in primary antibody overnight at 4° C. Following primary, membranes were washed for 10 minutes at room temperature three times with TBST and incubated in secondary for an hour at room temperature. Membranes were then washed for 10 minutes at room temperature three times with TBST and then incubated in buffer for enhanced chemiluminescence (50 mM Na2HPO4; 50 mM Na2CO3; 10 mM NaBO3.4H2O; 250 mM luminol; 90 mM coumaric acid).
# For HEK293 lysates, BCA protein assay was used to determine protein concentration. […]
# [3] = system: mutant (G85R or A4V) SOD1; assay: Aggregated mutant SOD1 in HEK293 cells (ultracentrifugation, western blot); type: cell-based, human; settings: HEK293, 48 hours, overexpression of SRCP1
# Method: HEK293 cells were transfected with either wild-type or mutant (G85R or A4V) SOD1 either in the presence or absence of SRCP1 for 48 hours. Cells were then collected and lysed prior to ultracentrifugation to isolate aggregated proteins. After ultracentrifugation cell protein in the pellet was suspended in Laemmli buffer and analyzed by SDS-PAGE and western blot
# [4] = target: ^GFPHtt^ex1Q74 (Homo sapiens, UniProt P42858); assay: GFPHttex1Q74 aggregation in zebrafish spinal cord neurons; type: in vivo; design: encoding pEGFP huntingtin exon-1 with 23 (^GFPHtt^ex1Q23) or 74 (^GFPHtt^ex1Q74) glutamines; host or cells: zebrafish embryos injected with in vitro transcribed mRNA; spinal cord neurons imaged; settings: zebrafish embryos injected with RNA
# Sequence of ^GFPHtt^ex1Q74 (Homo sapiens, UniProt P42858) (P42858 with tags, fused parts or gaps): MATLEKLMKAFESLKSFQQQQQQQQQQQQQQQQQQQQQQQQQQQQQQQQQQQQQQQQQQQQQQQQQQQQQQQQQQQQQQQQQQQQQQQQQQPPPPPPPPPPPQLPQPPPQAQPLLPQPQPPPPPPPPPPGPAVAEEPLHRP
# Method: To test the effect of ^RFPSRCP1 on ^GFPHtt^ex1Q74 aggregation in zebrafish, each plasmid was used for in vitro synthesis of mRNA (mMessage mMachine T7 transcription kit, ThermoFisher Scientific). Newly fertilized embryos were injected with either 200 pg mRNA each of ^RFPSRCP1 and ^GFPHtt^ex1Q74, or RFP alone and ^GFPHtt^ex1Q74. Embryos were developed until 54 hours post fertilization, at which time live specimens were anesthetized in Tricane, embedded in 1% low-melt agarose, and subjected to confocal microscopy. Spinal cord images were taken at 100 μm×100 μm and a scan depth of 50 μm. Single image planes from 488 nm and 568 nm excitation were collected. Images were then processed for threshold analysis using ImageJ and the total number puncta were scored.
# [5] = HEK293, co-expression, fluorescent microscopy
molecule,measurement,setting,value
B1,neurite length,[1],significantly increased neurite length
same,polyQ aggregation under proteasome inhibition,"[2]; HEK293, SRCP1 in the presence of proteasome inhibition",prevented polyQ aggregation
same,"levels of monomeric, soluble GFPHttex1Q74","[2]; HEK293, co-expression","no effect on the levels of monomeric, soluble"
same,soluble GFPHttex1Q74 levels under autophagy inhibition,"[2]; HEK293, co-expression of RFPSRCP1 plus 5 mM 3-MA",did not lead to a significant increase in soluble
same,soluble GFPHttex1Q74 under proteasome inhibition,"[2]; HEK293, co-expression of RFPSRCP1 plus proteasome inhibitor, compared to proteasome inhibition alone",even further increase in the amount of soluble
same,number of GFPHttex1Q74 puncta,[2]; [5],significantly decreases the number of puncta
same,size of GFPHttex1Q74 puncta,[2]; [5],significantly decreases ^GFPHtt^ex1Q74 puncta size
same,amount of GFPHttex1Q74 aggregates,"[2]; HEK293, co-expression, SDS-PAGE, filter trap assay, confocal microscopy",greatly reduced the amount of ^GFPHtt^ex1Q74 aggregates
same,levels of aggregated mutant SOD1,[3],reduces the levels of aggregated mutant SOD1
same,GFPHttex1Q74 puncta in spinal cord neurons,[4],significant reduction of ^GFPHtt^ex1Q74 puncta
